In US20240239875A1 (published 2024):
Changes are numbered by the printed parent chain.

B1: 8-H5-A (antibody, V domains shown)
VH: QVTLKESGPGILQSSQTLSLTCSLSGFSLSTSGMGVSWVRQPSGKGLEWLAHIYWDDDKRYTPSLKSRLTISTDSSRKQVFLKITSVDTADTATYYCARRDLHDYDGWFAYWGQGTLVTVSA
VL: DIVMTQSQKFMSTAVGDRVSVTCKASQNVGTNVAWYQQKPGQSPKALIYSASFRYSGVPDRFSGSGSGTDFTLTISNVQSEDLAEYFCQQYNSYPLTFGSGTKLEIK
B2: 9-K4-A (antibody, V domains shown)
VH: QAYLQQSGAELVRPGASVKMSCKASGYTFPNYSFHWVKQTPRQGLEWIGAIYPGNDDTSYNQRFKGKATLTVDKSSSTAYMQLSSLTSEDSAVYFCARDYSNYPFDCWGQGTTLTVSS
VL: DIVLTQSPASLAVSLGQRATISCRASKSVSTSGYSYMHWYQQKPGQPPKLLIYLASNLESGVPARFSGSGSGTDFTLNIHPVEEEDAATYYCQHSRELPPTFGGGTKLEIK
B3: 5-P24-A (antibody, V domains shown)
VH: B2 VH with P30T, N31S, F34M, D56G, N61T, R63K, C107Y
VL: not shown
B4: 2-H7-A (antibody, V domains shown)
VH: QAYLQQSGAELVRPGASVKMSCKASGYTFTGYTMHWVKQTPRQGLEWIGAIYPENGDTSYNQKFKGKATLTVDKSSSTAYMQLSSLTSEDSAVYFCARDGYDVLYGMDYWGQGTSVTVSS
VL: B2 VL with P100W, E109D
B5: 10-O24-A (antibody, V domains shown)
VH: B2 VH with P30T, N31S, F34M, R63K, K74R, A97T, C107Y
VL: B2 VL with S14F, K43R
B6: 3-P7-A (antibody, V domains shown)
VH: B2 VH with P30T, N31S, F34M, R63K, A97T, S101T, C107Y
VL: B2 VL with A12P, K43R, G68A, L108V
B7: 10-L12-A (antibody, V domains shown)
VH: B2 VH with P30T, N31S, F34M, D56G, R63K, A97T, C107Y
VL: B2 VL with M37L
B8: 4-M3-A (antibody, V domains shown)
VH: EVQLQQSGPELVKPGDSVKISCKASGYSFTGYFMNWVMQSHGKSLEWIGRINPNNGETFYNQKFKGKATLTVDKSSDTAHMELRSLTSEDSAVYYCARGGTGTGWGQGTTLTVSS
VL: DILMTQSPSSMSVSLGDTVSITCHASQGISSNIGWLQQKPGKSFKGLIYYGTNLEDGVPSRFSGSGSGADYSLTISSLESEDLADYYCIQYAQFPYTFGGGTKLEIK
B9: 3-E2-A (antibody, V domains shown)
VH: EVQLQQSGPELVKPGASVKISCKASGYTFTDYYMNWVKQSHGKSLEWIGDINPNNGGTSYTQKFKGKATLTVDKSSSKAYMELRSLTSEDSAVYYCARRGDGHYGGFTYWGQGTLVTVSA
VL: not shown
B10: 10-L24-A (antibody, V domains shown)
VH: B9 VH with P53S, S59T, T61D, K74R, K78T, Y104F
VL: not shown
B11: 2-O12-A (antibody, V domains shown)
VH: B9 VH with P53S, S59T, T61D, K74R, K78T, Y104F
VL: not shown
B12: 4-L4-A (antibody, V domains shown)
VH: QAYLQQSGAELVRPGASVKMSCKASGYTFTSYTVHWVKQTPRQGLEWIGGIYPGNVDTSYNQNFKGKATLTVDKSSSTAYMQLSSLTSEDSAVYFCARDGYYAMDYWGQGTSVTVSS
VL: not shown
B13: 8-H3-A (antibody, V domains shown)
VH: EVQLVESGGGLVQPKGSLKLSCAASGFTFNTYAMHWVRQAPGKGLEWVARIRSKSSNYATYYADSVKDRFTISRDDSQSMLYLQMNNLKTEDTAMYYCVRDHDYYGSSYWFTYWGQGTLVTVSA
VL: DVVMTQTPLSLPVSLGDQASISCRSSQSLVHDNGNTYLHWFLQKPGQSPKLLIYKVSNRFSGVPDRFSGSGSGTDFTLKISRVETEDLGVYFCSQSTHVPWTFGGGTKLEIK
B14: 7-B10-A (antibody, V domains shown)
VH: B13 VH with T60R, D76E, T112A
VL: B13 VL with R24S, D32N, F41Y, T85A
B15: 8-L17-A (antibody, V domains shown)
VH: B13 VH with T60R, T112A
VL: B13 VL with D32N, F41Y, T85A
B16: 7-N20-A (antibody, V domains shown)
VH: QVQLVETGGGLVRPGNSLKLSCVTSGFTFSNYRMHWLRQPPGKRLEWIGIITDKSDNYGANYAESVKGRFAISRDDSKSSVYLEMKRLREEDTATYFCSRDGYDWYFDLWGTGTTVTVSS
VL: DIVMTQSHKFMSTSVGDRVRITCKASQDVGIVVAWYQQKPGQSPKLLIYWASTRHTGVPDRFTGSGSGTDFTLTISNVQSEDLADYFCQQYSSYPTFGGGTKLEIK

Molecular target: SARS-CoV-2 receptor binding domain (UniProt P0DTC2 319-541)
Assay: ELISA

In order of falling EC50:
1. B5  3070 pM
2. B6  2930 pM
3. B9  800 pM
4. B2  730 pM
5. B10  310 pM
6. B15  270 pM
7. B8  260 pM
8. B11  220 pM
9. B12  220 pM
10. B13  190 pM
11. B1  130 pM
12. B7  130 pM
13. B3  120 pM
14. B4  80 pM
15. B14  80 pM

Molecular target: SARS-CoV-2 prefusion stabilized trimer protein (WIV02 isolate spike protein) (UniProt P0DTC2 14-1213)
Assay: ELISA

In order of falling EC50:
1. B6  38100 pM
2. B8  1940 pM
3. B2  1130 pM
4. B5  1070 pM
5. B10  920 pM
6. B9  870 pM
7. B11  840 pM
8. B12  370 pM
9. B3  290 pM
10. B13  270 pM
11. B15  270 pM
12. B16  240 pM
13. B14  160 pM
14. B4  130 pM
15. B7  110 pM
16. B1  80 pM
